The results in this text go back to article PMC6744409.

This experiment deals with LptB2FG from Shigella flexneri (Shigella flexneri) (UniProt P0A9V4).

For “LptC from Shigella flexneri (subunit of sfLptB2FGC) (from UniProt P0ADW2 1-191) (natural protein)”, the ATPase activity of purified sfLptB2FGC compared with sfLptB2FG under the same conditions was 50 % less.
